T1: Human CEACAM6 Protein, Human, Recombinant (His Tag) (human, UniProt P40199 35-320)
T1 construct: Bought antigen; also called CEACAM6抗原; CEACAM6蛋白; not shown: His tag
T1 sequence (looked up): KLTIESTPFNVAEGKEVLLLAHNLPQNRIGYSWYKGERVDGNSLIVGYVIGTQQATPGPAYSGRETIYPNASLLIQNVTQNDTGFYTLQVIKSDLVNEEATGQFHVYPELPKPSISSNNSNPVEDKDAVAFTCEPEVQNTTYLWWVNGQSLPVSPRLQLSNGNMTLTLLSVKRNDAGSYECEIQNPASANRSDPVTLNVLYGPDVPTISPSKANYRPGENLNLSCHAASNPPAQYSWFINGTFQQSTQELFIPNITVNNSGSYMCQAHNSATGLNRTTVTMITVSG

B1: 单域抗体NBC10 (VHH)
VHH: QVKLEESGGGLVQAGGSLRLSCAASGRTFSNYAMGWFREAPGKEREFVGSSSRSGSFSYLVDSVKGRFTIFRDNDKNTVYLQMNSLKPEDTAVYYCAAQTAIRAGVRDDYDFWGQGAQVTVSS
notes: Alpaca VHH
B2: 单域抗体NBC36 (VHH)
VHH: QVQLVESGGGLVQAGGSLRLSCVVSGIDFRINNMGWYRQAPGTQRELVASVTPGRNTNYADSVKGRFTISRDNAQNTVYLQMNSLQPEDTAVYSCSAYGPSGAYWGQGTQVTVSS
notes: Alpaca VHH
B3: 单域抗体NBC25 (VHH)
VHH: QVKLEESGGGLVQPGGSLRLSCAASGQTARAGIMGWFRQAPGKEREFVAAMGRSGASAYYQDSVQGRFTISRDNAQNTVFLQMNSLKPEDTAVYHCAAGNPIALTTAQYYDYWGQGTQVTVSS
notes: Alpaca VHH

Target: T1, Human CEACAM6 Protein, Human, …
Experiment: phage ELISA, phage-displayed VHH on coated CEACAM6

| Binder | binding result |
| --- | --- |
| B1 | binds |
| B2 | binds |
| B3 | binds |
